Assays:
Assay in all cases: MST
Pcf1_KER* = target: T1, Pcf1_KER* (Schizosaccharomyces pombe, UniProt Q1MTN9 56-170, R147E;K150E;K154E;R161E;K168E)
T1 sequence: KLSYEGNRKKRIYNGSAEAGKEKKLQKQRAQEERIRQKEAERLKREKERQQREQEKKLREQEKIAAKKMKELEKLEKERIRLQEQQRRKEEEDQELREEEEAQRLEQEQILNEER

Pcf1 WT;Pcf2;Pcf3 = target: T2, Pcf1 WT;Pcf2;Pcf3 (Schizosaccharomyces …, UniProt Q1MTN9;O13985;Q9Y825 1-544;1-512;1-408, ||)
T2 sequence 1: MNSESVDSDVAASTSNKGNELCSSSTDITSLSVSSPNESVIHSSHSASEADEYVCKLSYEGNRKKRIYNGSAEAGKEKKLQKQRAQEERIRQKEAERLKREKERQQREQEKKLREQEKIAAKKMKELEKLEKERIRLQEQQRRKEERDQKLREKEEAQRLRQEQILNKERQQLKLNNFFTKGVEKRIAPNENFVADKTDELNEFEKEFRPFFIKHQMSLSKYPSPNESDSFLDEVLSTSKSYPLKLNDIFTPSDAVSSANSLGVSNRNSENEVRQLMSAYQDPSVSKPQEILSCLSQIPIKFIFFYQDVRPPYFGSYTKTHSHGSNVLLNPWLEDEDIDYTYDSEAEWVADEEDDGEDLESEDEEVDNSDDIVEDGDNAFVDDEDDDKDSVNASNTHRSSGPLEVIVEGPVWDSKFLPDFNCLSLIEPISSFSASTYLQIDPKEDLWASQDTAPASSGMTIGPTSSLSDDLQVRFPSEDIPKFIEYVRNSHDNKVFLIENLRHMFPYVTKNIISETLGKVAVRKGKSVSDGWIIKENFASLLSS
T2 sequence 2: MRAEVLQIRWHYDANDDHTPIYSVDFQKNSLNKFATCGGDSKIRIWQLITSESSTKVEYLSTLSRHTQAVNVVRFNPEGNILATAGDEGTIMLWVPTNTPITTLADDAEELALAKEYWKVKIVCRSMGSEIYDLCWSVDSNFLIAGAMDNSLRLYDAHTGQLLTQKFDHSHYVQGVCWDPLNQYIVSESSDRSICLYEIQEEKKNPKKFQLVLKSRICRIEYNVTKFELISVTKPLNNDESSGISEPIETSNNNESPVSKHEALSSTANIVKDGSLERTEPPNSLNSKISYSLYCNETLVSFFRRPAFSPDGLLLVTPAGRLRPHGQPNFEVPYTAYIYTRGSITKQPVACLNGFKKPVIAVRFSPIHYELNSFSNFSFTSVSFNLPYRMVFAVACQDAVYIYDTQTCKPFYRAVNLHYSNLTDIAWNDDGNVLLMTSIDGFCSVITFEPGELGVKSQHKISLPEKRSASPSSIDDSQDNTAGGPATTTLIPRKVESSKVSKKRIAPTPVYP
T2 sequence 3: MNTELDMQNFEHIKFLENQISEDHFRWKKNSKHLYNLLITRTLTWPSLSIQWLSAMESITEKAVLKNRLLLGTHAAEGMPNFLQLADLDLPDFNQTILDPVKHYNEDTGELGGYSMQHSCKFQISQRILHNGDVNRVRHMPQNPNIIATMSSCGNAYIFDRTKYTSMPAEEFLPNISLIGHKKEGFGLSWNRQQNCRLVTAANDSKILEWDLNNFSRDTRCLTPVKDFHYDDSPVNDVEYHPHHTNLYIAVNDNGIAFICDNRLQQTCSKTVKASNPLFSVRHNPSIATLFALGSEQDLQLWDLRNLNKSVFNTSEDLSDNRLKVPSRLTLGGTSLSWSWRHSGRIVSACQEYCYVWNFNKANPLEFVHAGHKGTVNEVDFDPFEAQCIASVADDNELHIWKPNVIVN

Pcf1_KER-PIP = target: T3, Pcf1_KER-PIP (Schizosaccharomyces pombe, UniProt Q1MTN9 56-185)
T3 sequence: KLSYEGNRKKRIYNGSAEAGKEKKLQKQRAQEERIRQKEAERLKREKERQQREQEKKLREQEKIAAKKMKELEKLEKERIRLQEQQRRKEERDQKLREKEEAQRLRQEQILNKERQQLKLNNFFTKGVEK

Pcf1-ΔWHD;Pcf2;Pcf3 = target: T4, Pcf1-ΔWHD;Pcf2;Pcf3 (Schizosaccharomyces …, UniProt Q1MTN9;O13985;Q9Y825 1-470;1-512;1-408, del471-544||)
T4 sequence 1: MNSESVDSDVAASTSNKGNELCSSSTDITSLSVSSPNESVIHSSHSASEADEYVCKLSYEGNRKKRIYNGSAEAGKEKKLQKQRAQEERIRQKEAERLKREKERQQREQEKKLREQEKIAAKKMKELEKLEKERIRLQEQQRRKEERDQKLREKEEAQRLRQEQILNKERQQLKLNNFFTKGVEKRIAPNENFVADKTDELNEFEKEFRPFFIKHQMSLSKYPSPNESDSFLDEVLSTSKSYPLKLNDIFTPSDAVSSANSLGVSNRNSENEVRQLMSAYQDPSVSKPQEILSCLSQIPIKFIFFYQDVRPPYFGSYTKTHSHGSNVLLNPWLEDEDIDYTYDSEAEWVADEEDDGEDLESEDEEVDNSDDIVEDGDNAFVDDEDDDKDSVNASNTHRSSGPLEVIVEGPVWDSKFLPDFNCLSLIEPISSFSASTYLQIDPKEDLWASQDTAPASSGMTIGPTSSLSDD
T4 sequence 2: T2 sequence 2
T4 sequence 3: T2 sequence 3

B1: 40 bp dsDNA, Alexa488 (dsDNA)
DNA 1: ATCAATATCCACCTGCAGATACTACCAAAAGTGTATTTGG
DNA 2: CCAAATACACTTTTGGTAGTATCTGCAGGTGGATATTGAT
apparent K (half saturation) (Pcf1_KER*): 12.2 ± 0.7 µM | apparent K (half saturation) (Pcf1 WT;Pcf2;Pcf3): 700 ± 100 nM | apparent K (half saturation) (Pcf1_KER-PIP): 1900 ± 300 nM | apparent K (half saturation) (Pcf1-ΔWHD;Pcf2;Pcf3): 700 ± 100 nM
